{"source": "patent US6153580", "target": "β-casein"}
{"substance": "Hin47 Ser-197→alanine analog (enzyme)", "values": [{"measurement": "protease activity on the substrate β-casein", "value": "< 10", "unit": "%"}]}
